# T1: S. solfataricus ESCRT-III wH domain (His6-SSO0910, residues 210-259) (S. solfataricus, UniProt Q97ZJ6 210-259)
# T1 chain (looked up): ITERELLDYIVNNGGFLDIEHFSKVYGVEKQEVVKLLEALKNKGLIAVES
# T2: GST fused to full length ESCRT-III (Saci_1373) (S. acidocaldarius, UniProt Q4J924 1-261)
# T2 sequence (looked up): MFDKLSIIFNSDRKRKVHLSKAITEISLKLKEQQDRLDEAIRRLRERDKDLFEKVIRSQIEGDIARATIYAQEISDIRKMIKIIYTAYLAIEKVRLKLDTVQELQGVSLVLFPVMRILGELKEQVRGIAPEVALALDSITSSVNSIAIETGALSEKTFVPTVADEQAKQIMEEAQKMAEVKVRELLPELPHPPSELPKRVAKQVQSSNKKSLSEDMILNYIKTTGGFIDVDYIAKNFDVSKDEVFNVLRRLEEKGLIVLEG
# T3: full length ESCRT-III (Saci_1373), purified recombinant (S. acidocaldarius, UniProt Q4J924 1-261)
# T3 sequence (looked up): T2 sequence (looked up)
# B1: S. solfataricus CdvA E3B peptide (SSO0911, residues 251-265) (peptide, UniProt Q97ZJ5 251-265, looked up)
# peptide: SEIPLPIPVKVINTL
# B2: CdvA (Saci_1374) residues 69-238 (domain or fragment, S. acidocaldarius, UniProt Q4J923 69-238, looked up)
# chain: DWKTDSLKVLGQMEKIRKRQRALEELYSRQEIPKSTYEDMKRKLDSELLKIRDEHSRLKGRLKDRLNSIEDQVAQIDRAMIALKINYISGEIPELAYKNSMEILRLSRDSYALERDDIKKTLDKLDGLDKEVIELKPSASLNTSTEQSNKNEGNKSEVSVPIPVRVINTL
# Key:
# [1] = target: FlAsH-Saci_1373 (ESCRT-III wH domain, residues 194-261) (S. acidocaldarius) (UniProt Q4J924); assay: fluorescence polarisation
# [2] = target: T1, S. solfataricus ESCRT-III wH domain …; assay: crystal structure
# [3] = target: T2, GST fused to full length ESCRT-III …; assay: pull-down
# [4] = target: T3, full length ESCRT-III (Saci_1373), …; assay: co-sedimentation
molecule,measurement,setting,value
GST-tagged CdvA residues 208-238 (from UniProt Q4J923 208-238) (domain or fragment),Kd,[1],6 µM
B1,binding result,[2],binds
B2,binding result,[3],binds
same,binding result,[4],binds
